Measurements: patent US10081665B2, “Peptides and combination of peptides for use in immunotherapy against various tumors” (immatics biotechnologies GmbH, priority 2015, dated 2018)

Biological target: HLA-A*02:01 (Homo sapiens, UniProt P04439, D140Y/D185E/D98H/E176V/E277Q/G131W/G231S/I119V/I121R/I166T/I218V/L300P/L318F/N151K/N90K/P208A/P217A/Q86G/Q94H/R138H/R169H/T345S)
Test: MHC binding assay (UV-ligand exchange, beta2m ELISA)
Details: binding to HLA-A*02:01, β2m ELISA
Outline: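 Peptide-MHC complexes made by UV-ligand exchange of a UV-cleavable peptide for test peptide; exchange yield measured by β2m ELISA on streptavidin-coated plates with samples diluted 100-fold, HRP anti-β2m and TMB read at 450 nm. Refolded HLA-A*02:01/MLA-001 monomers (15-500 ng/ml) served as standards.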

Substance | Peptide exchange (MHC class I binding score, peptide exchange yield)
58 (HLLGEGAFAQV; listed as Homo sapiens) [compound 58] | +++ (≥50 = +++)
283 (ALSELLQQV; listed as Homo sapiens) [compound 283] | +++ (≥50 = +++)
51 (LDSEALLTL; listed as Homo sapiens) [compound 51] | ++ (≥20% = ++)
143 (MLWESIMRV; listed as Homo sapiens) [compound 143] | +++ (≥50 = +++)
217 (LLWPSSVPA; listed as Homo sapiens) [compound 217] | +++ (≥50 = +++)
21 (YLMDDFSSL; listed as Homo sapiens) [compound 21] | +++ (≥50 = +++)
128 (SILTNISEV; listed as Homo sapiens) [compound 128] | ++ (≥20% = ++)
250 (LMQDSRLYL; listed as Homo sapiens) [compound 250] | +++ (≥50 = +++)
23 (ALLSPLSLA; listed as Homo sapiens) [compound 23] | +++ (≥50 = +++)
137 (KLIYKDLVSV; listed as Homo sapiens) [compound 137] | ++ (≥20% = ++)
48 (KISDFGLATV; listed as Homo sapiens) [compound 48] | +++ (≥50 = +++)
161 (NLLDENVCL; listed as Homo sapiens) [compound 161] | ++++ (≥75% = ++++)
229 (YLYELEHAL; listed as Homo sapiens) [compound 229] | ++ (≥20% = ++)
165 (SLLDYEVSI; listed as Homo sapiens) [compound 165] | +++ (≥50 = +++)
145 (ALEEKLENV; listed as Homo sapiens) [compound 145] | +++ (≥50 = +++)
1 (KLQEKIQEL; listed as Homo sapiens) [compound 1] | ++++ (≥75% = ++++)
285 (MLLDTVQKV; listed as Homo sapiens) [compound 285] | +++ (≥50 = +++)
211 (LLTTVLINA; listed as Homo sapiens) [compound 211] | +++ (≥50 = +++)
131 (SLYPHFTLL; listed as Homo sapiens) [compound 131] | +++ (≥50 = +++)
148 (YLILSSHQL; listed as Homo sapiens) [compound 148] | +++ (≥50 = +++)
160 (TLQEWLTEV; listed as Homo sapiens) [compound 160] | +++ (≥50 = +++)
62 (SLVENIHVL; listed as Homo sapiens) [compound 62] | +++ (≥50 = +++)
41 (IVTEIISEI; listed as Homo sapiens) [compound 41] | +++ (≥50 = +++)

Substance | Peptide exchange (MHC class I binding score, peptide exchange yield)
61 (ALYPKEITL; listed as Homo sapiens) [compound 61] | +++ (≥50 = +++)
107 (RVLPGQAVTGV; listed as Homo sapiens) [compound 107] | ++ (≥20% = ++)
11 (LLDPKTIFL; listed as Homo sapiens) [compound 11] | +++ (≥50 = +++)
40 (KIWEELSVLEV; listed as Homo sapiens) [compound 40] | +++ (≥50 = +++)
100 (ALQSFEFRV; listed as Homo sapiens) [compound 100] | +++ (≥50 = +++)
188 (VLGEEQEGV; listed as Homo sapiens) [compound 188] | ++ (≥20% = ++)
237 (ALLEQTGDMSL; listed as Homo sapiens) [compound 237] | +++ (≥50 = +++)
117 (TLLEGISRA; listed as Homo sapiens) [compound 117] | ++ (≥20% = ++)
3 (RVIDDSLVVGV; listed as Homo sapiens) [compound 3] | +++ (≥50 = +++)
69 (LKVLKADVVL; listed as Homo sapiens) [compound 69] | ++ (≥20% = ++)
92 (RLFEEVLGV; listed as Homo sapiens) [compound 92] | ++++ (≥75% = ++++)
96 (ALDTTRHEL; listed as Homo sapiens) [compound 96] | ++ (≥20% = ++)
110 (QIQGQVSEV; listed as Homo sapiens) [compound 110] | ++ (≥20% = ++)
83 (GLLENSPHL; listed as Homo sapiens) [compound 83] | ++ (≥20% = ++)
277 (KLQEELNKV; listed as Homo sapiens) [compound 277] | +++ (≥50 = +++)
124 (ALLLRLFTI; listed as Homo sapiens) [compound 124] | ++ (≥20% = ++)
13 (RLHDENILL; listed as Homo sapiens) [compound 13] | +++ (≥50 = +++)
88 (LLLPLELSLA; listed as Homo sapiens) [compound 88] | +++ (≥50 = +++)
93 (RLYGYFHDA; listed as Homo sapiens) [compound 93] | ++ (≥20% = ++)
108 (FIANLPPELKA; listed as Homo sapiens) [compound 108] | +++ (≥50 = +++)
47 (GLNGFNVLL; listed as Homo sapiens) [compound 47] | +++ (≥50 = +++)
24 (KVWSDVTPL; listed as Homo sapiens) [compound 24] | +++ (≥50 = +++)
154 (AIIKEIQTV; listed as Homo sapiens) [compound 154] | ++ (≥20% = ++)

Substance | Peptide exchange (MHC class I binding score, peptide exchange yield)
65 (SLSEKSPEV; listed as Homo sapiens) [compound 65] | ++ (≥20% = ++)
12 (RLLDPKTIFL; listed as Homo sapiens) [compound 12] | +++ (≥50 = +++)
244 (NVAEIVIHI; listed as Homo sapiens) [compound 244] | +++ (≥50 = +++)
150 (VLLDMVHSL; listed as Homo sapiens) [compound 150] | +++ (≥50 = +++)
207 (KLFETVEEL; listed as Homo sapiens) [compound 207] | +++ (≥50 = +++)
221 (IMLNSVEEI; listed as Homo sapiens) [compound 221] | ++ (≥20% = ++)
271 (VLIEYNFSI; listed as Homo sapiens) [compound 271] | +++ (≥50 = +++)
49 (KLIGNIHGNEV; listed as Homo sapiens) [compound 49] | ++ (≥20% = ++)
94 (YLDEVAFML; listed as Homo sapiens) [compound 94] | +++ (≥50 = +++)
28 (IKVTDPQLLEL; listed as Homo sapiens) [compound 28] | ++ (≥20% = ++)
178 (SLVSWQLLL; listed as Homo sapiens) [compound 178] | ++++ (≥75% = ++++)
243 (GLAEFQENV; listed as Homo sapiens) [compound 243] | ++ (≥20% = ++)
199 (SVADLAHVL; listed as Homo sapiens) [compound 199] | ++ (≥20% = ++)
144 (FLISQTPLL; listed as Homo sapiens) [compound 144] | +++ (≥50 = +++)
87 (KLLSLLEEA; listed as Homo sapiens) [compound 87] | +++ (≥50 = +++)
230 (KLLNMIFSI; listed as Homo sapiens) [compound 230] | +++ (≥50 = +++)
193 (ALFHMNILL; listed as Homo sapiens) [compound 193] | +++ (≥50 = +++)
140 (FLDSQITTV; listed as Homo sapiens) [compound 140] | +++ (≥50 = +++)
86 (SLFSNIESV; listed as Homo sapiens) [compound 86] | +++ (≥50 = +++)
261 (GLAALAVHL; listed as Homo sapiens) [compound 261] | +++ (≥50 = +++)
52 (TIGIPFPNV; listed as Homo sapiens) [compound 52] | ++ (≥20% = ++)
200 (IMPTFDLTKV; listed as Homo sapiens) [compound 200] | +++ (≥50 = +++)
